# Results reported in a protein production outcome set (Wang et al. 2014).
# Experiment: label from the status in PepcDB records
row,Sequence,protein production
1,MKIVSIKIKNYRVFEDIKITNIPSFCVIIGANGTGKSTLFDVFGFLRDALKNNIRQALQIRGGFKEVVTRGKESEDIEIELKFRMEILATERLVTYILIIGQEGKKPVIKREILRYKRGEYGSPFHFLDFHNGQGYAIRNEESFESDEELEREEQKLESADILAIKGLGQFQRFKAANAIRSLIENWHVSDFHISDARGSKAALYAEHLSPTGDNIPIVAQYIYQEHPEIFAEILQRMKQRVPGISNVEAKEIEGGSLILKFQDQAFEDSFVDLYVSDGTIKMFAYLILLFDPKPHPLLCVEEPENQLYPTLLRELAEEFASYAHRGGQVFVSTHSPDFLNAVPLDSIFWLIKIQGVTKVEKAADHEVLRNLIAAGDLPGYLWNQGWFEGVAPLEHHHHHH,failed
2,MKKAGILLLSLLMPFSTAFAEASKPLSVELLWQLKRIGSPVVSSTGEHIIAPVTEYDLKEDKGSTQLWRFDVEGKNNRAITAKGLKVSEPVFSPDGKTLAFISERNDDDAGQIYLLPMDGPGEAAKLTDIPTGVNGIKWVGKHLYFISNIFPEQNWEQMKAQLKTDKDNKVSARQWNALPYSQFDHWLDERRQAHVFRIPATGGTVEAVTQPLGHELPRSSQSSESYDISPDERLIAFSAYGSDNRVDPKLDLFLATIGGNKAENITPENPAPDLNPSFSPNGKTLAFTRQKIPGFYADTARLMLLDVSSRKLTTLTPDWDRSVSEFEWTPDSKGFYASIEDAATNRIYHIDAKSGKAKAITQATDFSQPAIAKDGQLIATNQSFLYPARLVSINPRNGKTERLEQFNDDILKDVDLGTYESVTYKGYQGQDIQMWVHYPPGFDRSKKYPLFMLIHGGPHNAISDGFHYRWNAQTFASWGYVTAWPNFHGSSGFGQDFADAINPDWKNKSLEDVLKATDWFKQQSWIDSDRMVAGGASYGGYLTSIILGQPHPFKALLIHAAVYDMYAQMSADFAVHSTRFGNYWDNPELYKAISPHYFAANFNTPTLVSHGQLDYRVPVGQGFELFRTLQTRNVESRMIYFPDENHWIVKPNNSIYWYNQVKDWMAHYAKPGAQ,failed
3,MKKEFSAGGVLFKDGEVLLIKTPSNVWSFPKGNIEPGEKPEETAVREVWEETGVKGEILDYIGEIHYWYTLKGERIFKTVKYYLMKYKEGEPRPSWEVKDAKFFPIKEAKKLLKYKGDKEIFEKALKLKEKFKL,not failed
4,MKKEKIHLEYLLNATSKNILWSAISTPTGLEDWFADKVVSDDKTVTFCWGKTEQRQAGIVAIRAYSFIRFHWLDDENERDYFEIKMSYNELTGDYVLEITDFSEADEADDLKELWDSQVSKLRRTCGFLEHHHHHH,not failed
5,MKKEYGYPTLKVICQASAGNETAIREILKFYDAYICKLCLRPFYHFESGKITMQVDEELKGQIHIEMMKAILKFEIRVK,failed
6,MKKGAFITQIVIYGLILLASSLIANLVNKIWPAFPMPTPLIGMILLYLLLTFKVVKLEQVAGVSNFFVQFISLIFIPSGIALVTKLDVLKAEGVQIVIVIIVSTLMLLLFTAGIAWVLIQVKEWFIARRTNSNVELEED,failed
7,MKKGTDLLKKGFAKMVKHGVVMDVTNVEQAQIAEEAGAVAVMALERVPADIRAAGGVARMSDPALIEEIMDAVSIPVMAKCRIGHTTEALVLEAIGVDMIDESEVLTQADPFFHIYKKKFNVPFVCGARNLGEAVRRIWEGAAMIRTKGEAGTGNIVEAVRHMRLMNEAIAQLQRMTDEEVYGVAKFYANRYAELAKTVREGMGLPATVLENEPIYEGFTLAEIIDGLYEVLLEVKKLGRLPVVNFAAGGVATPADAALMMQLGSDGVFVGSGIFKSENPLERARAIVEATYNYDKPDIVAEVSKNLGEAMKGIDITQISEAEKMQYRGD,not failed
8,MKKIAFFIFVILFSVGIYLIWHVLLEKALELKLATSANDLLLKLLAILGVFSMLVLFQGIISSYKKRQLKRILQKIDAMNGFEFEEYSKIFFTSKGFEVSITQKSGDYGADLIIEKDGIKWAVQVKRYSHKVSPKAIQEVVSSKAYYACEKACVITNSYFTQAAQKLAQANEVLLIDRDEWVRFLNEKR,failed
9,MKKIEIFDPAMCCSTGVCGPSVDPELIRISVAVNNLKNKGIDVTRYNLASEPDAFANNGVISQLLTDKGPDVLPVTLVDGKVVKEKSHLTNEELTQLTDITEEELSQKPVVRLKLNVKK,not failed
10,MKKIIAITGFAMLGGGLREGLSLLVTWPQHFWITCLINIVGAFVLSLITNLLPARLPVSEDIVIGMSVGFVGSFTTFSTFTFETLQSFQSGHSVLALSYVAASLGLGLLAGLAGNFLSTYWLPKEEF,failed
11,MKKIICYLSLSALSLSSFSQTQIANGDFENWSSSEYCSALDSLDNFLTGQAFFYLNAKNETDAIECPALPFTYKTTDKQSGSYALKLGPQYFDDKAYYNFVTLGEAAYFEEEGSVASFGIPFTGRPSKLTGYYKCTAGAVGDELQIKVFGSNFTSEDPLFYGVFTASENQPMYEKFEIDLVYDPTDPNNAVYLSMLITVGNLNDGSIDENTVAFIDNLVFEYDATAATSYTPVSPIHVFASNKTISFSEHVSDIHVVDMVGANNIQEAASTKTLHAETLNSGLYIVTYNYKGNYFSKKVVIE,failed
12,MKKILAICGIELSLIFKKPQNYLIMFAAPLLLTFVFGSMLSGNDDKVRLAIVDQDDTILSQHYIRQLKAHDDMYVFENMSESKASEKLKQKKIAGIIVISRSFQTQLEKGKHPELIFRHGPELSEAPMVKQYAESALATLNIQVTAAKTASQTAGENWKAAYKTVFAKKHEDIVPAVTRQTLSDKKEGAEASDTASRAAGFSILFVMLTMMGAAGTILEARKNGVWSRLLTASVSRAEIGAGYVLSFFVIGWIQFGILLLSTHWLFGINWGNPAAVIVLVSLFLLTVVGIGLMIAANVRTPEQQLAFGNLFVIATCMVSGMYWPIDIEPKFMQSIAEFLPQKWAMSGLTEIIANGARVTDILGICGILLAFAAITFAAGLKALRA,failed
13,MKKILLSLITAAVLLSCQSSRDTSHKYTAITPGVEWLDTNNEKINAHGGGILYHEGIYYWYGECKSDSTYWNPNVPGWECYRTEAGGVNCYSSKDLLNWKYEGLVLQPEISDTQSDLHPSKVLERPKVIYNDKTKKFVMWLHVDSDDYNKAAAGVAVSDSPTGVFTYLGSMHPNGQISRDMTLFKDDDGKAYHIYSSEQNSTLYISLLSDDYLKPSGTFTRNFAGKFREAPAVFKHNGLYYVISSGCTGWSPNEAEYAVATQILGPWTVKGNPCVGKDADKTFYGQSTHVLPIQGKKDAYIAMFDKWNKTDLIHSTYIWLPIQFREDGSMAIQWLDSWSPDTYEF,failed
14,MKKISIEERPDWRATAEREGFNFHTIDGERYWDERGYYLFTEQQITRDLEAPTQALHQMCMDAVARVVDSEELLHQLAIPPAFFDVIQTSWKQGHPHLYARFDFAYDGTGPAKMYEINADTPTSLMEAGAFQLLWLEEQMARGVLPAHASQFNSIAEDLVRAFAEFPGASPFYFAAMSGSVEDRVTTDFLRRMAAHVGIDARHIDIEDIGLNDQGRFVDLDGRWIERLFKLHAWEHIFHEAFGKNVTASGTQFVEPAWKAILSNKGILPLLWQFNEGHPNLLPSRVDQDVTKPVPKGWVRKPYFSREGANIEMRTPGDQVIAVDGPYTDAPYILQAYSPLPKFGDSYTLIGSWVIGDLASGIGIREDDSLITKDTSRFLPHVVID,failed
15,MKKKDRYTGHRYAKPNRSSENDIYSNSDRYARTTGNKKYKKRKKKWSAKKKIIVTLCIILGIILMIAGIVFAYIKATLSQLGRVPLPEAPETLGISSEVAEKYKDLDVTNIALFGVDSREDNDIGRSDALMILSIDRVHNKIKLTSIARDTYVTVDGYGQTKINHAYAYEGPELAIKTINENFDMNIQGFVTVNFSQLAEIIDYLGGINIAVTEEEREVANRLIQELGVQCEPITESGESVHLTGDQAVIFARNRDTGGDSERTGRQRKVLSAMFDQAKAIDVTQYPGLINMVLSQSVTSLSDNDMLGIGTWAVTSGATMEQMSLPNENCNSSGEIIDGVWYYVYDLDLATDLLHDFIYEENSAD,failed
16,MKKKKIWALIWRKSAFRWLLISIFTAIIISACSYNVSKDENGKVKTVKSHFTPCYVVKHKMGETCVPQNPQRIVVLAQTTLANVLALGVKPIGILGADLPTYLQQARDIQVVGEGWEPDVEKILLLKPDLILGKEYHRTQYNTLSQIAPTVLLEWNGTPSWKQHLEDVAQVLNKTDQAKSLMRNYHQRLEEFKIKMGDRLKNLQISYIDILVGYIWCDVKNSFAGTILADAGLQHPSAQEVVTKGGYITFGLETMPMDADGDVIFTSHWMDEDGAKALKRNQNNPLWRKLKAVEQNQVYVVNRHFWRGSNILAAHKVIDDLFNYLVDAKS,failed
17,MKKKQVLAVSSALMIGTTTALTGLPTPVMAQENTEVVQEAVVEENKTEQVPVEQKTENAEVQENITDKEQEETAENAETLKEESTKQETPATPEKEVVTEDKTVEASKNTEVKAGSIAIDETHFPDKVFREQIIAEFDKDGDSVLSVDEISKAQFLNLHGMKTISSLEGIQYLTNLQSLDVSTTSVSDLSPVKNSSLKRLDCRSSKVGSVDLTRYPNLEAFLCDNTSINSLDVSKNEKLNTLFADSTSISNLDVTNNPNLEQLSCSNTGLMELDVTHNPQLVTLDIGDTKVKTLDISKNPNLKQLSCYMTNIAELDVTKNTKLTRLFCHDTTIKKLDLSNNLELEMLRCGEIFEQGIRGLDISKNTKIKKLICDDLYWLNVGENKVLENNHAFVGNGYIDIKGNKIDLKKDVEQGIDISKVKVTANGTLDKDTGIITVDDVKKPVTYEYDCGTYKDGNVVLKVELSLNSQGEDNTAPTISANDVTLNVGDTFDPLANVTATDKEDGTITLTKDNIVANDVDTSKAGTYHVTYKVTDKNGASVKKTITVTVKQNTGDLNSAPIISANDVTLNVGDTFDPLANVTATDKEDGTIILTKDNIIANDVDTSKAGTYHVTFRVVDKNGAITEKTITVTVKEKATNKPVSPQQPQKPSKPTTPTKPSGQKNPVKTGDMTNVGLFTSMFAGSTGVLAVLFGKKRKRNKNN,failed
18,MKKLLLTVIQIALLFIFARLINWVTALLHINIPGSIIGIVILFTLLHFNIIKLEWIELGAAWLLGELLLFFIPSAVGVIEYGDIMSKFGVSILLVVIISTFVVMVSTGTLTQLIAKRKEKKHTCSSEL,failed
19,MKKLLTVTFFTGMLTFFKMISGFIISKIVAIYTGPSGIVLFGQIQSIVSALNGVINSPVGPGIVRFTAENHRKGLEHCYKWWIAGLSWVCIISAIIIPLSITLSSHIAFWTLGSEKYSWVIILTACLLPLTAIGTFISSVINGFQNYKVYVLLGIISAFLSLIIMIALIVFGKINGALLAISVQNALIGGVMIIYASSQPWFNLRWLYGRVHKTYYKDIQRYIVMAITSAIVVPGSLIIVRNIIIHYVGWTEAGYWQAVWKISETYLAIITIALSTYYLPRLSSLSQKDDIIKEISSSLKIIIPLVMFFSMGIYLSRDFIISLLFTKEFLGARMLFQVQLIGDILKIASWLYAYVMISKGMTQLFVISEVLFSLLFISFSLVFIRCYGLIGVTYAYCLNYFIYLVFSVVVVKRAKYD,failed
20,MKKLSFFLIATLSLGACSTATSPTGRHQVFSGVSQQQLNQLGEQAFVEIKAKEKISGNVRQNAYVRCVVDALVTELPLQWRHVKWETVLFLNEEPNAFALPGGKVGVNTGIFRAAKNQEQLAAVLGHEIGHVVSRHHEERITWQLGTQAGLGLLGVLAGTAYGDSAATAVNQIGGLTAQAAFLLPGSRTQEREADIVGQRLMAQAGFDPIQAVYLWKNMLAIAGQRPPQWLSTHPDPTNRIRQLEQQSAVLASVYAQARDAGRVPHCSPAALEHHHHHH,failed
